Assay: label from the status in PepcDB records

Row | Sequence | protein production
1 | MRGNDETVLAQALDWLRQGRRVALLTVLGTYGASPRPPGALAAIRDDGVICGSVSGGCVEDDLRREIAEGGVFGAAPSARVRSFGVSVEERQRYRLPCGNSLRVAVETMPDPAQLEALLAAVRQRRCLWRRVDYRDGAAHLLESGPPAAFAEDEAGFSALHGPLWRLLIIGGAELGRYLAQIALTLDYAVTVCEPREEYAAGWEPDGVALSAQMPDDLVLAFGCDERTAVVAVTHDPKLDDLALMEALRLPCHYVGALGSATTTMKRKARLAEHFGLTPAQLDRLHGPVGLPIGSRTPAEIAVSIAADLIASRSACHREGVHGEEGSCRA | failed
2 | MRRRGKGGGSVFYHEGKGKWVAQLTWIDPATGRKVKREKHCETRKEAERALADMVVAQAKGLLTDPSRLTTRDFALDYLKRLEREGLRPNSIRLAQEELAHALPSLKDPKAHDPLGRMRLQEVKPVHVRAAVDRVAEAGYAPRTVGRVLMRLKALFREALRLELVARNPAEAVRLRLPKGEKTARALEPQEVARLLETAEASRSKDMALLLRLMLETGLRRGEALALQWRDIDLEAGELTVWRSWTKARGKGAFSEPKTPTAKRKVPLPRGLLLRLKARREELLERLTPEEVDGLFLVGGVKPVDPDAFNHYLRRLAERAGLGRVRVHDLRHTWATLALSRGVPLEVVSERLGHASPTITLNVYRHLLEEERRGWVLDLEELLYPAPRAQA | failed
3 | NAGFECGTEYLNFDEQPATMLDANLLSVEEGYPVTIIERLRTADGEPVVYCLDKIAKKELTCTEYQMSNGSILSAIKEQSNHNICYADTEIEAVNYEPRISEVLNASPHEGLILLKITHYNELDEPILYSLNYMKNSLVQ | failed
4 | MTTFSHSSTTPSVSVTTASGNNQSQLVATPVPDEQRISFWPQHFGLIPQWVTLEPRVFGWMDRLCEDYCGGIWNLYTLNNGGAFIAPEPDEDDGETWILFNAMNGNRAEMSPEAAGIAACLMTYSHHACRTECYAMTVHYYRLRDYALQHPECSAIMRIID | failed
5 | MAMEIGEDEWKVCCGSSEFAKQMSTSGPLTSQEAIYTARDIWFNQVNVTDWLEAFSAHPQIGNTPSPSINSDFARRSVSEQSTAFATTSASALQELAEWNVLYKKKFGFIFIICASGRTHAEMLHALKERYENRPIVELEIAAMEQMKITELRMAKLFSDKAKVISETDSSSSPVSTKPQDRLRIIGGHLNVAAEAKAPKRSRPPITTHVLDVSRGAPAAGVEVHLEVWSGTTGPSFVHGGGGVWSSVGTSATDRDGRSGPLMDLVDALNPGTYRISFDTAKYSPGCFFPYVSIVFQVTESQKWEHFHVPLLLAPFSFSTYRGS | failed
6 | MLKNHPKGLISASLTNMGERFGFYIMMGILLLFLQAKFGLSGKEASVIYSIFYASVYVLALVGGIIADSMKNYKGTILVGLIVMAAGYVMLGIPTPTQATGMTPWLIFTCAALAFISFGNGLFKGNLQALVGRMYDNDTYRDKRDSGFSLFYMFINVGAVFAPLVAVAIRNWWVQHNGFVYNADLPERCHQILNGTLPENAKAQVMEMIQAANNGTAVATEGLQEFALKYIQVFSTGFHYAFLAAVFFMAISFLIYIINKHQYPADQKANAVTEAHKDQKQEIKMAADEIRQRIIALCAVFGVVIFFWMSFHQNGVSLTQFAKDYIDLSSVKLDLGFTSIVGAEMFQSINPFFVVTLTPLLLFIFGFLKKRNMEPSTPKKIVIGMFIAALAFVVMAIGSMGLPTFEERNAGVEFTKVSPWLMVLTYMILTIAELFISPMGISFVSKVAPPHLQGIMQGLWLCATAVGNSLLFVGMILYESLSISATWIVFTCACALSMLVMLSMVKWLERVAK | failed
7 | MTSKSEWSNARRIVIILADVLLYNLSIILGFMVKFGREIPSFNFVAYEKSAIYISIFFIFLNLLLGAYIFYNRKISDIIFVTVIGQILMTLTIMIVTFAGRWFTFPRSVLGYSFIIGIIVLSLWRILVYYLYLKVSNERKVVLLGKENQVMRSIQNFMSDKNNKHKVTSVVVSNYYENLKKIIDEIDIVYISSNVDENEKVKLYQLIVKHKKKIFLDTSFENLIMLKPNMMNFEDESIIEVSNFEIQPEENFIKRLFDILVSVCLFVITSPLMLIAAILVKATSPGPVIYKQTRITLDQREFSILKFRTMSATAEAKSGPVLSTSNDSRVTTVGKYLRALRIDELPQLINVIRGDMSIVGPRPERPFFVDQFNQENPNYYLRHNVRAGITGYAQVYGKYASDYNSKLNFDLLYIKNYSLLLDMKILLQTIKILFDKVSSRGLDESEEREELTMDYCKENAIRIYR | failed
8 | MEDTMSKKAKKIIKIVVISIVTLAITICFGGYMMFHNEIKTLHSIEKLDDYPFYMMEYYGDYGLDEFLEQGGASSDSELVSFVVKRLMKGLPIEINIPSLGCSTFTAVTPENEYLFGRNFDLSYSPAMMVRTKPEKGYESVSMVNLGFIGYGKDKLPDNFFNSITTLAGPYAPLDGMNEKGLSVGVLLIPTEETNQTTNKVDITTTTAIRMILDTCATVEEAVDLLSQYDMHSSANSCYHFQIADANGTSVVVEYINNEMKLVEPKQAYQAATNFLLTPGDYDFGHGQDRYNTLMTTLDKKQGVLSEKEAMNLLKAVSQQPHKTKDGSISATQWSVVYNNTKRTATVSMGMDYQHTYEIKLFE | failed
9 | MDLEINKGIGRNVEFKGLESQYLFIFCGGLLAVFVVFVILYMAGVNQWVCIGFGVAAATLLVWLTFRLNARYGTHGLMKAAARRRHPRYVVNRLKIPRLFTFKHWQE | failed
10 | EPVLCSRTTCRAVLNPLCQVDYRAKLWACNFCYQRNQFPPSYAGISELNQPA | not failed
11 | MSASTSSHRPIKGILKNKSSSGSSVATSGQQSGGTIQDVKRKKSQKWDESSILAAHRATYRDYDLMKANEPGTSYMSVQDNGEDSVRDVEGEDSVRGVEGKEATDASDHSCEVDEQESSEAYMRKILLHKQEKKRQFEMRRRLHYNEELNIKLARQLMWKELQSEDNENEETPQGTNEEKTAAEESEEAPLTGGLQTQSCDP | failed
12 | MKIFKKSDISGIFHELGILISTIGFIMLLPSFIGIYFHEPFFYFLFPSLFFMILGLLINKITKPISVKLKHAMVISALAWLMASLIGAIPFYIGIEYFSYLDGVFESMSAWTTTGFSIVGDVESLPRTLQFWRSFEQWIGGVGVLAMVITILSKAGASAYYRAEAREEKIMPSTIGTIKKIWQIYLLYTTIGICLLYLSGLNLWSALNICMCGISTGGMSISNQSFPFNNFAKIIMTLIMYIGGVVSFSVHHNVLTGRRVDDIQTKTSIPILFFAAFVITLTSGIDPLDSLFTVVSAMTSTGFSSVQISSLTNISIAVLIFVMAIGGATGTTTGGIKLIRLVIMAKGFYYRLKEVVSPGNAIIYKKIGKNQLSDFLILDAFIIAFAYIIHYLFGTLVLISLGYDPFLSVFESVSLVANMGLSVDIVNHSLHPIAKILGVFSMWVGRLEIIPIYVLIILPLYLKLKDVGKNKISKNRKL | failed
13 | MTGAVVVDIPLRWSDMDAQGHVNNVRISELVQESRNQAFYTNGAQEMLDTGIVVVSQDVEFLAPFVVDGSPLRVAVGCSQLGAARTVLDYRAWHHDVEVARARGTICPFDFATGRPRRLTDGERGAFESMKVESQQWKPIKVVDVSEAGDFIEVPIRWSDVDRQGHVNNVSLAGYLQEARILATTSWSPGMRRAGNYLWVVVRQDIRYRRQVLPTQRSCRVHTALTRLGTSSMTLAGSIATEEGSALDAATVLVCVDPKTGASVPIDDQTRQALSAYLVTV | failed
14 | MKRKAFLALGFLALGLGVSQVGPFRARLEAAIQTGGEAFAQVMLSQDKAQALCTQYRDKLPPELVPAFLAEQRALIKYPASGKLMGDWKNGEKVFTDPKRGNCYACHQGDPREVAYGTMGPSLTGYGQRGLSEAVVRYTYEKIYNAWAFVPCSLMYRGGVHGYFTPEETADLVAYLLSPESPINRR | failed
15 | MSILMLFGLATLRSATYGENEQLFTRQIVWDIAGFSLMFLVLFIKDRTIRNFSIILYVFSVVLLAALLVKGTPIGGSKRWFRVMGFSFQPSDFAKLSLIVLLPYLLEKRWFWRSFFLTVVPAVLIFLEPDLGTTLSVGLIWLFAVLASNVNKKPLVILLILVLVFLPVFFFFGLKDYQRARILSFLNPEEYGESYSYNVLQSIHAIGAGGLFGAGYMKGKANLMGYVPVSYTDFIVSVIGEEFGFIGIVFLLSLFGLLFFEVSRWILNVKDEYWEILMVSACGLIWFHVFENVSMNLGLLPVTGVPLPFISYGGTSTLVFSILVGLILKGIALARVEKKL | failed

— a protein production outcome set (Wang et al. 2014)
